From the supplement of paper PMC12636428

Tested on: Saccharomyces cerevisiae
Assay: transcriptional activation domain activity (GFP:mCherry ratio, weighted mean of sorted bins, harmonized to initial dataset scale) (arbitrary fluorescence ratio units); higher = stronger transcriptional activation
Conditions: beta-estradiol 1 µM; induction time 4 h
Summary of the method: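 Yeast diploids with a GFP reporter received barcoded protein tiles, fused to an estradiol-inducible synthetic transcription factor, at the URA3 locus. Cultures were diluted 1:5 into SC holding 1 uM beta-estradiol, incubated 4 hours at 30 °C, sorted into 8 bins on GFP:mCherry ratio, and sequenced for barcodes, with tiles under 50 reads discarded. Activation activity values come from the read-weighted mean of bin median fluorescence, averaged across barcodes and linearly placed on the initial dataset scale.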

Sequence | transcriptional activation domain activity
MEQTNKEDSGSDTQACPICDAPAVNRCSRCASVYYCSQEHQKEVRYESPSNAL | 49900
MERNGNVVWILFWHFHLLFFWAMEKSFDFLHSKTLSPFWFITYFLYLLILFYL | 31900
MESAKKAVESVAEGIKKVAISGDQKPAAGGKKEGGKKEKKAAKAGAEVSSGPL | 34300
MESHSFLPICRYFWGVMPQLMPSFYLNLLSWFSLCFIVFHWLHTVVIFPYLLL | 49200
MESRARISTSVILYLCARLRSIAVITYMIVVRSLSTFVYLAQRFFILLWPIIW | 55600
MESVTCFYFHLFRFFHSRLLVFVLMLCFESIVSLFRFLCIFVFSLFFYIFFFF | 75500
METATPPQPKKGRRGNPKTRTGCVTCKMRRVKCDEAKPQCKRCISTGRTCDGY | 15500
METPEQPSAGRRRPHRKSRTGCAECRRRRIKCDEVKPACTACVRHDHPCVYPS | 22000
METSASARSPPPSTRQPSAPRRVRAALACQRCKGRKQKCEGGQPSCRSCIKAG | 60700
METTVSGQSSQPPAANDDQEPTKKRKRDKYVGKACGPCKRRKIRCGGGVPCES | 36300
MEVCSVWISSLWFFVFSAFSVLGLWSLVFGIWSFRESGWYMGPGFFFFFFLIL | 63100
MEVGSAAVAGPVLAAAHVPRKRRRPALSCEQCRKRKVKCDRTSPCGQCTRSKG | 32100
MEVRQRKPGSGRPKGSKNKAKPPGTEPRPRKPGSGRPKGSKNKTTLAAAAAAA | 30900
MEVVEGGGWKSFVYSCIRVIFLWGLDFGYFGLVACLISFCIGIFFSFFFPHYF | 27200
MEWHLLGSCLAGLVWGVFYIFFFFAACLIGFFPYHYHYLLLLLVLLTTNILFV | 49500
MEWLLHTVYVVAIKDTRAWGGFSPFQMSMVGYFNLKLIWLKLLIIWRFFRLWA | 76000
MEWMGGWLVLGGWIYLFCSVMFKLDRLVVFLEVFFFYLLLCVIVLVMGLVVML | 38800
MEWVRLLSKEVLLFYSIFFFSFVSFTVLTLFPLHESSILSRLLIFIYPLRHLV | 44700
MEWVRTARGRVPPGRRPVEGGYESSGARLYHALAVVDGVRVPGKTGEHLGGCN | 32000
MEYLIGHMEIYSVHFLHFCFFLRFLIFFFPLFFFFSYFSFHSYIYTFFFLEII | 31800
MFACPYLGLLCLSVTSMPYPFSQLFQPFISPRFCPECAPFSFFLHSFLGFHLT | 52200
MFAHFFFLRACCCPLPFFFCGYVFLIFSSPFSCFCFLCFWFCCFFFSVCFLLF | 58700
MFAKILVLSWFDSIRWGLFLLLCVMGVFLLFDIPFFLFPTCFLCLVFPFLLAK | 20400
MFAKILVLSWFDSIRWGLFLLLCVMGVFLLFDIPFSFSLLVFSAWYFLFFSRR | 33800
MFALLEILCLICILLLTKPRCLCFSIRLEILIFFSFFFFFFCIFLVGYTLSTL | 80600

Sequence | transcriptional activation domain activity
MFCFFEFLFFYKEDLAAYALCSCSQLPASFFLFLFPSPLWLFFFFFIFCLTFM | 38900
MFCLRFFVPLLLLPAPSAPPLLILTLLISMWFLHRPCIYCSLLIVGFLISSCS | 55900
MFCLRSWIPILFFLLRTNASPIYLILFISATYFLNRPCVYCSLLLFILVVALF | 50800
MFCLRSWIPILFFLLRTNASPVYLILFLSATYFLNRPCVYCSFLLLILVIALF | 59500
MFCLRSWIPILFFLSVSNASPIYLILFVVTTYLLNRPCVYCSLLLGVLVLALF | 38500
MFCLRSWIPILFFLTNASPIYLLLFISATYTLNRPCVYCSLLLGILVLALFDF | 28600
MFCLRSWIPLLFIPANASPGFIFLFFVCTYFLNRPCVYCSILLLILFVTSCYW | 41000
MFCLRSWIPVLFFLLRTHASPIYLVLFISATYFLNRPCVYCSLLLFILVVALF | 61100
MFCLRSWIPVLFFLLRTHASPVYLVLFISATYFLNRPCVYCSLLLFILVVALF | 84400
MFCLRSWIPVLFFLLRTNASPVYLILSISATYFLNRPCVYCSLLLFILVVALF | 57600
MFCLRSWIPVLFFLLRTNASPVYLVLFLSATYFLNRPCVYCSLLLFILVVALF | 46500
MFCLRSWLPLLFIPTNAPPIFIFIFFFLNFFLSRPCVYCSFLLLILCLTSCYW | 36600
MFCLRSWLPLLFIPTNAPPIFVFLFFVCTFFLSRPCVYCSFLLAILFLTSCYW | 65100
MFCLRSWLPLLFIPTNAPPVFVFLFFACTFFLSRPCVYCSFLLLILFFTSCYW | 52700
MFCLRSWLPLLFIPTNASPAFIFLFFVCTYFLNRPCVYCSFLLLILFATSCYW | 36100
MFCLRSWLPLLFIPTNASPAFILLFFIGTYFLNRPCVYCSLLLLILFCTSCVW | 40200
MFCLRSWLPLLFIPTNASPIFIFLFFICTYFLNRPCVYCSFLLLILFASSCHW | 48400
MFCLRSWLPLLFIPTNASPIFIFLFFVSTYFLNRPCVYCSFLLLILFASSCHW | 52500
MFCLRSWLPLLFIPTNASPVFIFLFFVCTYFLNRPCVYCSFLLLILFMTSCNW | 62500
MFCLRSWLPLLFIPTNASPVFILLFFIGTYFLNRPCVYCSLLLLILFSTSCVW | 39400
MFCLRSWLPLLFIPTSASPVFIFLFFVCTYFLNRPCVYCSFLLLILFLTSCNW | 30800
MFCPDVCLVLSIGDVLLAMSYWRCLRETASLFHYHLVPPFELLPLYSVRITAA | 58800
MFCWLCYFLPFISFGFPLIYPSSVGILLWIVISGLCVFIFTLKMFLVFLLLFF | 46100
MFDYLVFTLCPCIFFILFLLILLVLLHKALVVFFFYHYSILVLVVPYYCLFVF | 86400
MFENFSLLLSSLCFFPLSLFFCFFFLFPLSSFFFFVFLLAFCFCCFRFSLFFF | 18100

Sequence | transcriptional activation domain activity
MFESVNLDENSPEDRELAKVLSPPGSYLSPASLDSGSSFTNSGTSTSCFEPKN | 32400
MFFCSFFRWGFIFFFSFLFFSFILLCWCFLVFLNFATDPACNLPFSFLVFIPR | 57600
MFFCYLTVILSMDAFYYYQSHLNWTSTQLYVTWFNACFRNGLIRIIYFVFWWL | 76300
MFFFLLLFIIVMYGCLVCEVIHTSFVGLIMVSTLMLNAFSCFMSFTYFLFFLF | 59000
MFFFLSAFLLPFLFFLVGHSAPSFLYLVFLSFLFYYLLHFYFFLFFTYFCGSC | 59300
MFFIFFFWFVFFPLTIFLLSSSIFGFLFSSSFLFYYYYFFLWGGRPFIFPFYS | 33300
MFFIIILFLVIYSGKISSNFLSFLYRLLLFMLISAQLSVLHCYCLYIFHRCYC | 30900
MFFILASFSYYYYTHHISLDKVGNFLCRFIHPVFLCSIFIFPFLLYLFKIIYY | 39100
MFFKMMTTQDIQFVNVCFKLHSTLPMLFIGGIFLIIHCTSSSAIKGRICTAAF | 34100
MFFLFFLLVSWWLCYLLLMASSFLIVGGMYLLALCPPLGCIGDLVVPFYFLFL | 81700
MFFLFPFLTFGYPAFNLKLCLLIQSNSYCHSFSSLSLYALLLLYLRLLLILLI | 71100
MFFLLVLAAVISGYKAVLKHFLVVISLFLHMIYLVPPLCLWKPILVASILSSP | 44700
MFFLPFGIFFFFACFFSLFTFADSWLAVFLPDRFLLSFVLFNFAFFFFFFTTL | 31900
MFFLSSFSALLAFSPPPSLLLLLLLLLTFPLSGFLALFLPRFSISLLTLSFFY | 50700
MFFLSSIFLTLSMTLSPLFLYFNWLVVYGFSSLFFIFSTPTFLPPLCFFQWYC | 45200
MFFPLVLSKMLICVSFLPVTLLISYLSFFFLFFTGLGLGATAFFFFTFLLYFS | 42100
MFFRRFLMYFVELTGIMYCLIVFFMVSLFLLYRRNMIEEQFPNKTIILYGKRV | 58500
MFGFIVVLLFSLPFFFTSSTTLSSFYFSFTFLVHFFLSYSLNVFLSFFVWFFF | 58100
MFGFSLFFLFCFSVIVGFILFTLFFDYSPLSISLSCSVYCIMLCLSLFFLVFF | 34200
MFGICTYSIPFLYFPPIPFVSYVSTLYFFVSHSISFHYLYIYCSIHLPFFLFI | 69000
MFGIGFFSRVLPWLWLWLWLYFFFFFFLYIFCMHYEQFSLSLTYNKLPFSLAL | 65900
MFGKRFIYCLSIIDYGISPHEGITGFILCVCVVYFLECGFCYCWHSRRTSMSW | 64400
MFGRPYCFGFVVYLFVGCFAVLSVVCSFFFFPLLPLLVVVILLKVVFSFVRAD | 29100
MFGYDSSRSSCSFLLPRESSIRLMVYFLYLLRVFYLLFFVFHLFLLPSSLFFF | 41200
